Measurements published in publication PMC6418199 (Scientific Reports, 2019).

B1: 32D6 human monoclonal antibody (antibody, V domains shown)
VH: QVQLQESGPGLVKPSETLSLTCTVSGGSVNTGSYYWSWIRQPPGKGLEWIAYSSVSGTSNYNPSLKSRVTLTVDTSKNQFSLSVRSVTAADTAVYFCARLNYDILTGYYFFDFWGQGTLVIVSS
VL: QVELTQSPSASASLGTSVKLTCTLSSGHSTYAIAWHQQRPGKGPRYLMNLSSGGRHTRGDGIPDRFSGSSSGADRYLIISSLQSEDEADYYCQTWDAGMVFGGGTKLTVL
B2: 32D6-Fab (Fab, V domains shown)
VH: QVQLQESGPGLVKPSETLSLTCTVSGGSVNTGSYYWSWIRQPPGKGLEWIAYSSVSGTSNYNPSLKSRVTLTVDTSKNQFSLSVRSVTAADTAVYFCARLNYDILTGYYFFDFWGQGTLVIVSS
VL: QVELTQSPSASASLGTSVKLTCTLSSGHSTYAIAWHQQRPGKGPRYLMNLSSGGRHTRGDGIPDRFSGSSSGADRYLIISSLQSEDEADYYCQTWDAGMVFGGGTKLTVL
notes: also called Fab of 32D6; His-tagged Fab of 32D6 (with the CH1 domain); source: Expi293F cells, purified (HisTrap excel column)

Assays:
[1] = molecular target: hemagglutinin of H1N1 clinical isolate A/Taiwan/80813/2013 (genotype A/California/07/2009) (Influenza A virus A/Taiwan/80813/2013 …, UniProt C3W5X2, strain); test: cell-based or functional assay
[2] = molecular target: hemagglutinin of H1N1 clinical isolate 2013-INF-152 (genotype A/California/07/2009) (Influenza A virus H1N1, clinical …, UniProt C3W5X2, strain); test: cell-based or functional assay
[3] = molecular target: hemagglutinin of H1N1 clinical isolate 2013-INF-153 (genotype A/California/07/2009) (Influenza A virus H1N1, clinical …, UniProt C3W5X2, strain); test: cell-based or functional assay
[4] = molecular target: hemagglutinin of H1N1 clinical isolate 2014-INF-36 (genotype A/California/07/2009) (Influenza A virus H1N1, clinical …, UniProt C3W5X2, strain); test: cell-based or functional assay
[5] = molecular target: hemagglutinin of H1N1 clinical isolate 2014-INF-37 (genotype A/California/07/2009) (Influenza A virus H1N1, clinical …, UniProt C3W5X2, strain); test: cell-based or functional assay
[6] = molecular target: HA1 domain (residues 63-290) of hemagglutinin from A/California/07/2009 (H1N1) (Influenza A virus …, UniProt C3W5X2); test: SPR; […], single-cycle kinetics, 25 °C; […]; 10 mM HEPES pH 7.4, 150 mM NaCl; conditions: both partners purified

Binder | Neutralization EC50 (infection of MDCK cells, high-content image system) [1] | Neutralization EC50 (infection of MDCK cells, high-content image system) [2] | Neutralization EC50 (infection of MDCK cells, high-content image system) [3] | Neutralization EC50 (infection of MDCK cells, high-content image system) [4] | Neutralization EC50 (infection of MDCK cells, high-content image system) [5] | Kd [6] | koff [6] | kon [6]
B1 | 0.036 µg/mL | 0.014 µg/mL | 0.005 µg/mL | 0.011 µg/mL | 0.012 µg/mL |  |  | 
B2 |  |  |  |  |  | 0.353 nM | 9.12e-05 s⁻¹ | 258000 M⁻¹ s⁻¹
